The binders below were run against T1, HLA-A24 type molecule (product of the HLA-A*2402 gene) (human). Settings: not given.

Going from LLSTTEWQI (modifications not checked) [SEQ ID NO 42] to WHYPCTVNF (modifications not checked) [SEQ ID NO 8], the -log Kd falls from 8.34 -log Kd (M) to 6.39 -log Kd (M).

Compared with ILMTHFFSI (modifications not checked) [SEQ ID NO 13], LMTHFFSIL (modifications not checked) [SEQ ID NO 18] is lower in -log Kd: 7.9 -log Kd (M) for the first, 5.92 -log Kd (M) for the second.

Going from VILDSFDPI (modifications not checked) [SEQ ID NO 2] to ITYSTYCKF (modifications not checked) [SEQ ID NO 40], the -log Kd rises from 5.32 -log Kd (M) to 6.98 -log Kd (M).

Going from SYTWTGALI (modifications not checked) [SEQ ID NO 14] to NFSRCWVAL (modifications not checked) [SEQ ID NO 37], the -log Kd falls from 7.13 -log Kd (M) to 6.28 -log Kd (M).

First: ILLGPADSF (modifications not checked) [SEQ ID NO 27]
Second: LLKRLHQWI (modifications not checked) [SEQ ID NO 19]
The -log Kd of the first is lower: 5.5 -log Kd (M) for the first, 6.86 -log Kd (M) for the second.

Going from AQPGYPWPL (modifications not checked) [SEQ ID NO 12] to AYYSMVGNW (modifications not checked) [SEQ ID NO 22], the -log Kd rises from 5.36 -log Kd (M) to 6.47 -log Kd (M).

With ILPCSFTTL (modifications not checked) [SEQ ID NO 1] the -log Kd was 7.66 -log Kd (M).

Biological target: T1, HLA-A24 type molecule (product of the …)
Settings: not given
Remark: another data set of the same source

Compared with ILLGPADSF (modifications not checked) [SEQ ID NO 75], RYAPACKPL (modifications not checked) [SEQ ID NO 71] is higher in -log Kd: 5.5 -log Kd (M) for the first, 6.76 -log Kd (M) for the second.

Compared with WLRDVWDWI (modifications not checked) [SEQ ID NO 76], VILDSFEPL (modifications not checked) [SEQ ID NO 45] is lower in -log Kd: 6.34 -log Kd (M) for the first, 5 -log Kd (M) for the second.

Compared with GLIHLHQNI (modifications not checked) [SEQ ID NO 54], LMCAVHPEL (modifications not checked) [SEQ ID NO 55] is higher in -log Kd: 5.86 -log Kd (M) for the first, 6.59 -log Kd (M) for the second.

Compared with ILMTHFFSI (modifications not checked) [SEQ ID NO 60], PLLRDEVTF (modifications not checked) [SEQ ID NO 59] is lower in -log Kd: 7.9 -log Kd (M) for the first, 5.09 -log Kd (M) for the second.

Compared with AFYGVWPLL (modifications not checked) [SEQ ID NO 49], AYYSMVGNW (modifications not checked) [SEQ ID NO 67] is lower in -log Kd: 7.73 -log Kd (M) for the first, 6.47 -log Kd (M) for the second.

Compared with LLKRLHQWI (modifications not checked) [SEQ ID NO 65], LMTHFFSIL (modifications not checked) [SEQ ID NO 64] is lower in -log Kd: 6.86 -log Kd (M) for the first, 5.92 -log Kd (M) for the second.

Going from TVLADFKTW (modifications not checked) [SEQ ID NO 56] to AQPGYPWPL (modifications not checked) [SEQ ID NO 58], the -log Kd falls from 6.52 -log Kd (M) to 5.36 -log Kd (M).

Compared with SYTWTGALI (modifications not checked) [SEQ ID NO 61], WHYPCTVNF (modifications not checked) [SEQ ID NO 52] is lower in -log Kd: 7.13 -log Kd (M) for the first, 6.39 -log Kd (M) for the second.

Biological target: T1, HLA-A24 type molecule (product of the …)
Settings: not given
Remark: another data set of the same source

Going from SYTWTGALI (modifications not checked) [SEQ ID NO 108] to ILLGPADSF (modifications not checked) [SEQ ID NO 100], the -log Kd falls from 7.13 -log Kd (M) to 5.5 -log Kd (M).

First: WHYPCTVNF (modifications not checked) [SEQ ID NO 92]
Second: VFPDLGVRV (modifications not checked) [SEQ ID NO 123]
The -log Kd of the first is lower: 6.39 -log Kd (M) for the first, 6.74 -log Kd (M) for the second.

Compared with RYAPACKPL (modifications not checked) [SEQ ID NO 110], AFYGVWPLL (modifications not checked) [SEQ ID NO 98] is higher in -log Kd: 6.76 -log Kd (M) for the first, 7.73 -log Kd (M) for the second.

First: PLLRDEVTF (modifications not checked) [SEQ ID NO 87]
Second: AYYSMVGNW (modifications not checked) [SEQ ID NO 102]
The -log Kd of the first is lower: 5.09 -log Kd (M) for the first, 6.47 -log Kd (M) for the second.

First: VLADFKTWL (modifications not checked) [SEQ ID NO 112]
Second: LLSTTEWQI (modifications not checked) [SEQ ID NO 109]
The -log Kd of the first is lower: 6.63 -log Kd (M) for the first, 8.34 -log Kd (M) for the second.

First: GLIHLHQNI (modifications not checked) [SEQ ID NO 94]
Second: VILDSFEPL (modifications not checked) [SEQ ID NO 84]
The -log Kd of the first is higher: 5.86 -log Kd (M) for the first, 5 -log Kd (M) for the second.

First: LLKRLHQWI (modifications not checked) [SEQ ID NO 104]
Second: ILMTHFFSI (modifications not checked) [SEQ ID NO 96]
The -log Kd of the first is lower: 6.86 -log Kd (M) for the first, 7.9 -log Kd (M) for the second.

Going from WLRDVWDWI (modifications not checked) [SEQ ID NO 106] to TVLADFKTW (modifications not checked) [SEQ ID NO 90], the -log Kd rises from 6.34 -log Kd (M) to 6.52 -log Kd (M).

Same assay, conditions: remark: other sources report otherwise

For ITYSTYGKF (modifications not checked) [SEQ ID NO 107], the -log Kd was 6.37 -log Kd (M).
